Legend:
[1] = target: T1, mouse CTLA4 (mouse, UniProt P09793 36-223); assay: flow cytometry on CHO-mCTLA4 cells; SSC vs Anti-Human-IgGFc-FITC
T1 construct: Expressed on transfected CHO cells; also called mCTLA4
Description: 25 ul CHO cells were added to each well.
After being washed with PBS (1200 rmp, 5 min) twice, 50 ul of anti-human IgG Fc antibody fluorescein isothiocyanate conjugate (IgG Fc-FITC) was added at 1:100 dilution into each well and was incubated at 4° C. for 30 minutes, followed by PBS wash. The signals for FITC were determined by flow cytometry.

[2] = target: T1, mouse CTLA4; assay: flow cytometry on CHO-mCTLA4 cells; SSC vs Anti-mouse-IgGFc-FITC

T1 sequence (P09793 36-223 S182T limits assumed): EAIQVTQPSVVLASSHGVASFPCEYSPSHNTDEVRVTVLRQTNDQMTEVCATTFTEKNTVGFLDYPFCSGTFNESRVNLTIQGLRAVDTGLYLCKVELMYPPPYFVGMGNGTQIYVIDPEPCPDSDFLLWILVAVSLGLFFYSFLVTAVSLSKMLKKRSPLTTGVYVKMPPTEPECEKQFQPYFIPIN

binding result [1]	binding result [2]	Binder
no binding (tested: 1 ug/ml)	–	CT4-03-4G12-mHvKv-IgG1 (antibody, V domains shown) VH: DVKLVESGGGLVKPGGSLKLSCTASGFTFSSYTMSWVRQTPEKRLEWVATISRGGGYTSYPDSVKGRFTISRDNAKNTLYLQMSSLQSEDTAMYYCARDDYGSSYVHWFAYWGQGTLVTVSA VL: DIQMTQSPASLSASVGETVTITCRAGENIYSYLAWYQQKQGKSPQLLVYNARTLAEGVPSRFSGSGSGTQFSLKINSLQPEDFGSYYCQHHYGSPRTFGGGTKLEIK
no binding (tested: 1 ug/ml)	–	CT4-04-13A4-mHvKv-IgG1 (antibody, V domains shown) VH: QVQLQQSGAELVRPGASVTLSCKASGYTFTDYEMHWVKQTPVHGLEWIGVIDPETGGTAYNQKFKGKATLTADRSSSTAYMELRSLTSEDSAVYYCTRGTTVVGLDYWGQGTTLTVSS VL: DIQMTQSPASLSASVGESVTITCRASGNIHNYLAWYQQKQGKSPQLLVYKEKTLTDTVPSRFSGSGSGTQFSLKINSLQPEDFGSYYCQHFWSTPWTFGGGTNLEIK
–	no binding (tested: 1 ug/ml)	CT4-20-6D2 (antibody, V domains shown, Mouse monoclonal antibody purified from ascites fluid) VH: QVQLQQSGAELVRPGASVTLSCKASGYTFTDYEMHWVKQTPVHGLEWIGTIDPETGGTAYNQKFKGKATLTTDKSSSTAYMELRSLTSEDSAVYYCTRRGKYGNYDYVMDYWGQGTSVTVSS VL: DIQMTQSPASLSASVGETVTITCRASGNIHNYLAWYQQKQGKSPQLLVFNAKTLADGVPSRFSGSGSGTQYSLKINSLQPEDFGNYYCQHFWSTPWTFGGGTKLEIK
–	no binding (tested: 1 ug/ml)	CT4-20-7E12 (antibody, V domains shown, Mouse monoclonal antibody purified from ascites fluid) VH: EVKLDETGGGLVQPGRPMKLSCVASGFTFSDYWMNWVRQSPEKGLEWVAQIRNKPYNYETHYSDSVKGRFTISRDDSKSSVYLQMNNLRGEDMGIYYCTGTFAYWGQGTLVTVSA VL: DIQMTQSPTSLSASVGETVTITCGTSENIYGGLNWYQRKQGKSPQLLIYGATNLADGMSSRFSGSGSGRQYSLKISSLHPDDVATYYCQNVLSTPYTFGGGTKLEIK
